The target of this test is T1, soluble human CD3ε chain (human, UniProt P07766 23-126, limits assumed).
T1 construct: the text says soluble human CD3ε chain; also called human CD3 epsilon chain
The experiment in a line: SPR (Biacore).

Usually Kd stands for the constant that tells how readily two partners part at equilibrium. High values mean lower affinity, low ones higher affinity.

T1 sequence (P07766 23-126 limits assumed): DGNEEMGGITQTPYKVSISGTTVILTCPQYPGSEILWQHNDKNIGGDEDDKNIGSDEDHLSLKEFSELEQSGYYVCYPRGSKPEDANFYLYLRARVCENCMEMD

B1: TR01H084-E22Hh/none-Hi-Kn010G3/L0011-k0 (antibody, human IgG1, kappa, L234A L235A, N297A)
heavy: QVQLVESGGGVVQPGGSLRLSCAASGFTFSNAWMHWVRQAPGKGLEWVAQIKDKSQNYATYYAESVKGRFTISRADSKNSIYLQMNSLKTEDTAVYYCRYVHYAAGYGVDIWGQGTTVTVSSASTKGPSVFPLAPSSKSTSGGTAALGCLVKDYFPEPVTVSWNSGALTSGVHTFPAVLQSSGLYSLSSVVTVPSSSLGTQTYICNVNHKPSNTKVDKKVEPKSCDKTHTCPPCPAPEAAGGPSVFLFPPKPKDTLMISRTPEVTCVVVDVSHEDPEVKFNWYVDGVEVHNAKTKPREEQYASTYRVVSVLTVLHQDWLNGKEYKCKVSNKALPAPIEKTISKAKGQPREPQVYTLPPSRCELTKNQVSLSCAVKGFYPSDIAVEWESNGQPENNYKTTPPVLDSDGSFFLVSKLTVDKSRWQQGNVFSCSVMHEALHNHYTQKSLSLSPDYKDDDDK
chain: EPKSSDKTHTCPPCPAPELLGGPSVFLFPPKPKDTLMISRTPEVTCVVVDVSHEDPEVKFNWYVDGVEVHNAKTKPREEQYNSTYRVVSVLTVLHQDWLNGKEYKCKVSNKALPAPIEKTISKAKGQPREPQVCTLPPSRDELTKNQVSLWCLVKGFYPSDIAVEWESNGQPENNYKTTPPVLDSDGSFFLYSKLTVDKSRWQQGNVFSCSVMHEALHNRYTQKSLSLSP
light: DIVMTQSPLSLPVTPGEPASISCRSSQPLVHSNRNTYLHWYQQKPGQAPRLLIYKVSNRFSGVPDRFSGSGSGTDFTLKISRVEAEDVGVYYCGQGTQVPYTFGQGTKLEIKRTVAAPSVFIFPPSDEQLKSGTASVVCLLNNFYPREAKVQWKVDNALQSGNSQESVTEQDSKDSTYSLSSTLTLSKADYEKHKVYACEVTHQGLSSPVTKSFNRGEC
notes: single-arm
For B1, the Kd is 19.8 nM.

B2: TR01H084-E22Hh/none-Hi-Kn010G3/L0271-k0 (antibody, human IgG1, kappa, L234A L235A, N297A)
heavy: QVQLVESGGGVVQPGGSLRLSCAASGFTFSNAWMHWVRQAPGKGLEWVAQIKDKSQNYATYYAESVKGRFTISRADSKNSIYLQMNSLKTEDTAVYYCRYVHYAAGYGVDIWGQGTTVTVSSASTKGPSVFPLAPSSKSTSGGTAALGCLVKDYFPEPVTVSWNSGALTSGVHTFPAVLQSSGLYSLSSVVTVPSSSLGTQTYICNVNHKPSNTKVDKKVEPKSCDKTHTCPPCPAPEAAGGPSVFLFPPKPKDTLMISRTPEVTCVVVDVSHEDPEVKFNWYVDGVEVHNAKTKPREEQYASTYRVVSVLTVLHQDWLNGKEYKCKVSNKALPAPIEKTISKAKGQPREPQVYTLPPSRCELTKNQVSLSCAVKGFYPSDIAVEWESNGQPENNYKTTPPVLDSDGSFFLVSKLTVDKSRWQQGNVFSCSVMHEALHNHYTQKSLSLSPDYKDDDDK
chain: EPKSSDKTHTCPPCPAPELLGGPSVFLFPPKPKDTLMISRTPEVTCVVVDVSHEDPEVKFNWYVDGVEVHNAKTKPREEQYNSTYRVVSVLTVLHQDWLNGKEYKCKVSNKALPAPIEKTISKAKGQPREPQVCTLPPSRDELTKNQVSLWCLVKGFYPSDIAVEWESNGQPENNYKTTPPVLDSDGSFFLYSKLTVDKSRWQQGNVFSCSVMHEALHNRYTQKSLSLSP
light: DIVMTQSPLSLPVTPGEPASISCRSSQPPVHSNRQTYLHWYQQKPGQAPRLLIYKVSNRFSGVPDRFSGSGSGTDFTLKISRVEAEDVGVYYCGQGTQVPYTFGQGTKLEIKRTVAAPSVFIFPPSDEQLKSGTASVVCLLNNFYPREAKVQWKVDNALQSGNSQESVTEQDSKDSTYSLSSTLTLSKADYEKHKVYACEVTHQGLSSPVTKSFNRGEC
notes: single-arm
The molecule B2 came in with a Kd of 27.6 nM.

B3: TR01H084-E22Hh/none-Hi-Kn010G3/L0262-k0 (antibody, human IgG1, kappa, L234A L235A, N297A)
heavy: QVQLVESGGGVVQPGGSLRLSCAASGFTFSNAWMHWVRQAPGKGLEWVAQIKDKSQNYATYYAESVKGRFTISRADSKNSIYLQMNSLKTEDTAVYYCRYVHYAAGYGVDIWGQGTTVTVSSASTKGPSVFPLAPSSKSTSGGTAALGCLVKDYFPEPVTVSWNSGALTSGVHTFPAVLQSSGLYSLSSVVTVPSSSLGTQTYICNVNHKPSNTKVDKKVEPKSCDKTHTCPPCPAPEAAGGPSVFLFPPKPKDTLMISRTPEVTCVVVDVSHEDPEVKFNWYVDGVEVHNAKTKPREEQYASTYRVVSVLTVLHQDWLNGKEYKCKVSNKALPAPIEKTISKAKGQPREPQVYTLPPSRCELTKNQVSLSCAVKGFYPSDIAVEWESNGQPENNYKTTPPVLDSDGSFFLVSKLTVDKSRWQQGNVFSCSVMHEALHNHYTQKSLSLSPDYKDDDDK
chain: EPKSSDKTHTCPPCPAPELLGGPSVFLFPPKPKDTLMISRTPEVTCVVVDVSHEDPEVKFNWYVDGVEVHNAKTKPREEQYNSTYRVVSVLTVLHQDWLNGKEYKCKVSNKALPAPIEKTISKAKGQPREPQVCTLPPSRDELTKNQVSLWCLVKGFYPSDIAVEWESNGQPENNYKTTPPVLDSDGSFFLYSKLTVDKSRWQQGNVFSCSVMHEALHNRYTQKSLSLSP
light: DIVMTQSPLSLPVTPGEPASISCRSSQPPVHSNRNTYLHWYQQKPGQAPRLLIYKVSNRFSGVPDRFSGSGSGTDFTLKISRVEAEDVGVYYCAQGTQVPYTFGQGTKLEIKRTVAAPSVFIFPPSDEQLKSGTASVVCLLNNFYPREAKVQWKVDNALQSGNSQESVTEQDSKDSTYSLSSTLTLSKADYEKHKVYACEVTHQGLSSPVTKSFNRGEC
notes: single-arm
Molecule B3 gave a Kd of 8.51 nM.

B4: TR01H084-E22Hh/none-Hi-Kn010G3/L0201-k0 (antibody, human IgG1, kappa, L234A L235A, N297A)
heavy: QVQLVESGGGVVQPGGSLRLSCAASGFTFSNAWMHWVRQAPGKGLEWVAQIKDKSQNYATYYAESVKGRFTISRADSKNSIYLQMNSLKTEDTAVYYCRYVHYAAGYGVDIWGQGTTVTVSSASTKGPSVFPLAPSSKSTSGGTAALGCLVKDYFPEPVTVSWNSGALTSGVHTFPAVLQSSGLYSLSSVVTVPSSSLGTQTYICNVNHKPSNTKVDKKVEPKSCDKTHTCPPCPAPEAAGGPSVFLFPPKPKDTLMISRTPEVTCVVVDVSHEDPEVKFNWYVDGVEVHNAKTKPREEQYASTYRVVSVLTVLHQDWLNGKEYKCKVSNKALPAPIEKTISKAKGQPREPQVYTLPPSRCELTKNQVSLSCAVKGFYPSDIAVEWESNGQPENNYKTTPPVLDSDGSFFLVSKLTVDKSRWQQGNVFSCSVMHEALHNHYTQKSLSLSPDYKDDDDK
chain: EPKSSDKTHTCPPCPAPELLGGPSVFLFPPKPKDTLMISRTPEVTCVVVDVSHEDPEVKFNWYVDGVEVHNAKTKPREEQYNSTYRVVSVLTVLHQDWLNGKEYKCKVSNKALPAPIEKTISKAKGQPREPQVCTLPPSRDELTKNQVSLWCLVKGFYPSDIAVEWESNGQPENNYKTTPPVLDSDGSFFLYSKLTVDKSRWQQGNVFSCSVMHEALHNRYTQKSLSLSP
light: DIVMTQSPLSLPVTPGEPASISCRSSQPPVHSNRNTYLHWYQQKPGQAPRLLIYKVSNRFSGVPDRFSGSGSGTDFTLKISRVEAEDVGVYYCGQGTQVPYTFGQGTKLEIKRTVAAPSVFIFPPSDEQLKSGTASVVCLLNNFYPREAKVQWKVDNALQSGNSQESVTEQDSKDSTYSLSSTLTLSKADYEKHKVYACEVTHQGLSSPVTKSFNRGEC
notes: single-arm
B4 gave a Kd of 16.5 nM.

B5: TR01H084-E22Hh/none-Hi-Kn010G3/L0270-k0 (antibody, human IgG1, kappa, L234A L235A, N297A)
heavy: QVQLVESGGGVVQPGGSLRLSCAASGFTFSNAWMHWVRQAPGKGLEWVAQIKDKSQNYATYYAESVKGRFTISRADSKNSIYLQMNSLKTEDTAVYYCRYVHYAAGYGVDIWGQGTTVTVSSASTKGPSVFPLAPSSKSTSGGTAALGCLVKDYFPEPVTVSWNSGALTSGVHTFPAVLQSSGLYSLSSVVTVPSSSLGTQTYICNVNHKPSNTKVDKKVEPKSCDKTHTCPPCPAPEAAGGPSVFLFPPKPKDTLMISRTPEVTCVVVDVSHEDPEVKFNWYVDGVEVHNAKTKPREEQYASTYRVVSVLTVLHQDWLNGKEYKCKVSNKALPAPIEKTISKAKGQPREPQVYTLPPSRCELTKNQVSLSCAVKGFYPSDIAVEWESNGQPENNYKTTPPVLDSDGSFFLVSKLTVDKSRWQQGNVFSCSVMHEALHNHYTQKSLSLSPDYKDDDDK
chain: EPKSSDKTHTCPPCPAPELLGGPSVFLFPPKPKDTLMISRTPEVTCVVVDVSHEDPEVKFNWYVDGVEVHNAKTKPREEQYNSTYRVVSVLTVLHQDWLNGKEYKCKVSNKALPAPIEKTISKAKGQPREPQVCTLPPSRDELTKNQVSLWCLVKGFYPSDIAVEWESNGQPENNYKTTPPVLDSDGSFFLYSKLTVDKSRWQQGNVFSCSVMHEALHNRYTQKSLSLSP
light: DIVMTQSPLSLPVTPGEPASISCRSSQSLVHSNRQTYLHWYQQKPGQAPRLLIYKVSNRFSGVPDRFSGSGSGTDFTLKISRVEAEDVGVYYCGQGTQVPYTFGQGTKLEIKRTVAAPSVFIFPPSDEQLKSGTASVVCLLNNFYPREAKVQWKVDNALQSGNSQESVTEQDSKDSTYSLSSTLTLSKADYEKHKVYACEVTHQGLSSPVTKSFNRGEC
notes: single-arm
As for B5, binding was put at a Kd of 27.6 nM.

B6: TR01H084-E22Hh/none-Hi-Kn010G3/L0272-k0 (antibody, human IgG1, kappa, L234A L235A, N297A)
heavy: QVQLVESGGGVVQPGGSLRLSCAASGFTFSNAWMHWVRQAPGKGLEWVAQIKDKSQNYATYYAESVKGRFTISRADSKNSIYLQMNSLKTEDTAVYYCRYVHYAAGYGVDIWGQGTTVTVSSASTKGPSVFPLAPSSKSTSGGTAALGCLVKDYFPEPVTVSWNSGALTSGVHTFPAVLQSSGLYSLSSVVTVPSSSLGTQTYICNVNHKPSNTKVDKKVEPKSCDKTHTCPPCPAPEAAGGPSVFLFPPKPKDTLMISRTPEVTCVVVDVSHEDPEVKFNWYVDGVEVHNAKTKPREEQYASTYRVVSVLTVLHQDWLNGKEYKCKVSNKALPAPIEKTISKAKGQPREPQVYTLPPSRCELTKNQVSLSCAVKGFYPSDIAVEWESNGQPENNYKTTPPVLDSDGSFFLVSKLTVDKSRWQQGNVFSCSVMHEALHNHYTQKSLSLSPDYKDDDDK
chain: EPKSSDKTHTCPPCPAPELLGGPSVFLFPPKPKDTLMISRTPEVTCVVVDVSHEDPEVKFNWYVDGVEVHNAKTKPREEQYNSTYRVVSVLTVLHQDWLNGKEYKCKVSNKALPAPIEKTISKAKGQPREPQVCTLPPSRDELTKNQVSLWCLVKGFYPSDIAVEWESNGQPENNYKTTPPVLDSDGSFFLYSKLTVDKSRWQQGNVFSCSVMHEALHNRYTQKSLSLSP
light: DIVMTQSPLSLPVTPGEPASISCRSSQPLVHSNRQTYLHWYQQKPGQAPRLLIYKVSNRFSGVPDRFSGSGSGTDFTLKISRVEAEDVGVYYCGQGTQVPYTFGQGTKLEIKRTVAAPSVFIFPPSDEQLKSGTASVVCLLNNFYPREAKVQWKVDNALQSGNSQESVTEQDSKDSTYSLSSTLTLSKADYEKHKVYACEVTHQGLSSPVTKSFNRGEC
notes: single-arm
For B6, the Kd amounted to 31 nM.
